# Source: patent US20110318353A1 (Janssen / Centocor, published 2011)
# Where two headings read alike, the source gives them in different places.
# T1: human IL-25 (human, UniProt Q9H293 33-177)
# T1 sequence: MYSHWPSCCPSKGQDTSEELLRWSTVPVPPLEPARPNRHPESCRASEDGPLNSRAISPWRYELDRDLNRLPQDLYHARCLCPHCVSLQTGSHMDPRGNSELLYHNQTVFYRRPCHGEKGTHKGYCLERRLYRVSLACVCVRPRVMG
# T2: cynomolgus monkey IL-25 (cynomolgus monkey, UniProt G7P9V9 33-176)
# T2 construct: also called cynoIL-25; cyno IL-25
# T2 sequence: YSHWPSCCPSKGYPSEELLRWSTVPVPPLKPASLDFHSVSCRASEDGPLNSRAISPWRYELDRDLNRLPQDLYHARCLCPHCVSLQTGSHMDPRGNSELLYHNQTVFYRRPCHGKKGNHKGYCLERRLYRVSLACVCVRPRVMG
# Experiments:
# human IL-25 [1] = target: T1, human IL-25; assay: Biacore, 7200 sec dissociation
# Source text: (§1) The Fabs were converted to mAbs as follows. A combinatorial library of 5 different light chains and 5 different heavy chains (including the huDDG91 light and heavy chains) was designed. The light and heavy chains used in the library differed from one another in the light chain CDR1 and CDR3 amino acid sequences and the heavy chain CDR 3 sequence. Using these light and heavy chains, a total of 25 mAbs (IgG1) were constructed, expressed in HEK293 cells at small scale and purified. Each of the mAbs was tested for IL-25 binding affinity, cellular inhibition, and receptor inhibition as follows: [0149] IL-25 binding affinity was determined using standard IL-25 ELISA and Biacore binding assays. […] Cellular inhibition was assessed using a standard TK-10 human renal carcinoma cell-based assay (IL-25 responsive; IL-25 and IL-8 readout; capable of discerning difference between soluble IL-25R and parental mAb) and a CD4+ T cell-based assay. […] Receptor inhibition was assessed using a modified bead-based electrochemiluminescence immunoassay (ECLIA). Candidates causing a greater than 3-fold decrease in IC₅₀ of IL-25 binding to receptor relative to parental huDDG91 antibody at a 10 nM mAb concentration were selected.
# human IL-25 [2] = target: T1, human IL-25
# human IL-25 [3] = target: T1, human IL-25; assay: Receptor inhibition (column sub-head 'Panel A/ B'): bead-based ECLIA, inhibition of IL-25 binding to the IL-25 receptor
# Source text: as §1
# human IL-25 [4] = target: T1, human IL-25; assay: Receptor inhibition (column sub-head 'Panel A/ B'): bead-based ECLIA, inhibition of IL-25 binding to the IL-25 receptor; upper end of the range
# Source text: as §1
# human IL-25 [5] = target: T1, human IL-25; assay: Biacore, 7200 sec dissociation; first R71V G1 row
# Source text: as §1
# human IL-25 [6] = target: T1, human IL-25; assay: Biacore, 7200 sec dissociation; second R71V G1 row, printed in italics = number from a different data set
# human IL-25 [7] = target: T1, human IL-25; assay: Receptor inhibition (column sub-head 'Panel A/ B'): bead-based ECLIA, inhibition of IL-25 binding to the IL-25 receptor; lower end of the range
# Source text: as §1
# human IL-25 [8] = target: T1, human IL-25; assay: cell-based or functional assay
# human IL-25 [9] = target: T1, human IL-25; assay: Biacore, 7200 sec dissociation; printed in italics = number from a different data set
# cynomolgus monkey IL-25 = target: T2, cynomolgus monkey IL-25; assay: species cross-reactivity criterion; method not stated
# human IL-25 [10] = target: T1, human IL-25; assay: receptor inhibition: IL-25 binding to receptor, bead-based ECLIA
# IL-17BR (receptor), sequence (Q9NRM6 18-292): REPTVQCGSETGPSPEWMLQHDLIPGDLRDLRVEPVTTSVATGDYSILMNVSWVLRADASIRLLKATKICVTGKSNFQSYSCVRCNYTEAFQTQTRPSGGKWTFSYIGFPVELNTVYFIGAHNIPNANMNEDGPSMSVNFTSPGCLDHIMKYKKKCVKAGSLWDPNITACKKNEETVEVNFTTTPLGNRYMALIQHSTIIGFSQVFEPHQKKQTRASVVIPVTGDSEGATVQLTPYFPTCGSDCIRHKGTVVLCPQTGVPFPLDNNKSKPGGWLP
molecule,measurement,setting,value
IL-17BR (receptor),Kd,human IL-25 [1],0.017 nM
same,"Cellular inhibition, fold change",human IL-25 [2],1 fold change
same,IC50,human IL-25 [3],0.063 nM
"huDDG91 antibody (antibody, V domains shown, Humanized (CDR-grafted) version of murine 2C3; also called RH2.5_R71V; M9) VH: EVQLVESGAEVKKPGASVKVSCKASGYSFSGYTMNWVRQAPGQRLEWMGLINPYNGGTSYNQNFKGRVTLTVDTSASTAYLELNSLRSEDTGVYYCAREDYDGYLYFAMDYWGQGTLVTVS VL: DIQMTQSPSSLSASVGDRVTITCSASQGISNYLNWYQQKPGKVPKLLIYYTSSLHSGVPSRFSGSGSGTDFTLTISSLQPEDVATYYCQQYSKLPYTFGQGTKLEIK",IC50,human IL-25 [4],≤ 0.0643 nM
same,Kd,human IL-25 [5],0.194 nM
same,Kd,human IL-25 [6],0.136 nM
same,IC50,human IL-25 [7],≥ 0.0452 nM
"I25M28 (antibody, V domains shown, One of the 9 candidate IgG1 mAbs of the combinatorial library based on huDDG91) VH: EVQLVESGAEVKKPGASVKVSCKASGYSFSGYTMNWVRQAPGQRLEWMGLINPYNGGTSYNQNFKGRVTLTVDTSASTAYLELNSLRSEDTGVYYCAREDFDSWTYFAMDYWGQGTLVTVS VL: DIQMTQSPSSLSASVGDRVTITCSASQGISNYLNWYQQKPGKVPKLLIYYTSSLHSGVPSRFSGSGSGTDFTLTISSLQPEDVATYYCQQYLAFPYTFGQGTKLEIK",Kd,human IL-25 [1],0.019 nM
same,IC50,human IL-25 [3],0.014 nM
same,"Cellular inhibition, fold change",human IL-25 [8],16 fold change
"I25M10 (antibody, V domains shown, One of the 9 candidate IgG1 mAbs of the combinatorial library based on huDDG91) VH: EVQLVESGAEVKKPGASVKVSCKASGYSFSGYTMNWVRQAPGQRLEWMGLINPYNGGTSYNQNFKGRVTLTVDTSASTAYLELNSLRSEDTGVYYCAREDFDSWTFFAMDYWGQGTLVTVS VL: DIQMTQSPSSLSASVGDRVTITCSASQGISNYLNWYQQKPGKVPKLLIYYTSSLHSGVPSRFSGSGSGTDFTLTISSLQPEDVATYYCQQYLAFPYTFGQGTKLEIK",Kd,human IL-25 [1],0.036 nM
same,IC50,human IL-25 [3],0.014 nM
same,"Cellular inhibition, fold change",human IL-25 [8],5 fold change
"I25M34 (antibody, V domains shown, One of the 9 candidate IgG1 mAbs of the combinatorial library based on huDDG91) VH: EVQLVESGAEVKKPGASVKVSCKASGYSFSGYTMNWVRQAPGQRLEWMGLINPYNGGTSYNQNFKGRVTLTVDTSASTAYLELNSLRSEDTGVYYCAREDFDSWTYFAMDYWGQGTLVTVS VL: DIQMTQSPSSLSASVGDRVTITCSASQGINEYLNWYQQKPGKVPKLLIYYTSSLHSGVPSRFSGSGSGTDFTLTISSLQPEDVATYYCQQYINFPYTFGQGTKLEIK",Kd,human IL-25 [1],0.064 nM
same,IC50,human IL-25 [3],0.013 nM
same,"Cellular inhibition, fold change",human IL-25 [8],7 fold change
"I25M32 (antibody, V domains shown, One of the 9 candidate IgG1 mAbs of the combinatorial library based on huDDG91) VH: EVQLVESGAEVKKPGASVKVSCKASGYSFSGYTMNWVRQAPGQRLEWMGLINPYNGGTSYNQNFKGRVTLTVDTSASTAYLELNSLRSEDTGVYYCAREDYDSWTFFAMDYWGQGTLVTVS VL: DIQMTQSPSSLSASVGDRVTITCSASQGINEYLNWYQQKPGKVPKLLIYYTSSLHSGVPSRFSGSGSGTDFTLTISSLQPEDVATYYCQQYINFPYTFGQGTKLEIK",Kd,human IL-25 [1],0.087 nM
same,IC50,human IL-25 [3],0.011 nM
same,"Cellular inhibition, fold change",human IL-25 [8],4 fold change
"I25M11 (antibody, V domains shown, One of the 9 candidate IgG1 mAbs of the combinatorial library based on huDDG91) VH: EVQLVESGAEVKKPGASVKVSCKASGYSFSGYTMNWVRQAPGQRLEWMGLINPYNGGTSYNQNFKGRVTLTVDTSASTAYLELNSLRSEDTGVYYCAREDFDSWTFFAMDYWGQGTLVTVS VL: DIQMTQSPSSLSASVGDRVTITCSASQGIASFLNWYQQKPGKVPKLLIYYTSSLHSGVPSRFSGSGSGTDFTLTISSLQPEDVATYYCQQYSSFPYTFGQGTKLEIK",Kd,human IL-25 [1],0.057 nM
same,IC50,human IL-25 [3],0.014 nM
same,"Cellular inhibition, fold change",human IL-25 [8],5 fold change
"I25M30 (antibody, V domains shown, One of the 9 candidate IgG1 mAbs of the combinatorial library based on huDDG91) VH: EVQLVESGAEVKKPGASVKVSCKASGYSFSGYTMNWVRQAPGQRLEWMGLINPYNGGTSYNQNFKGRVTLTVDTSASTAYLELNSLRSEDTGVYYCAREDFDSWTYFAMDYWGQGTLVTVS VL: DIQMTQSPSSLSASVGDRVTITCSASQGIHWNLNWYQQKPGKVPKLLIYYTSSLHSGVPSRFSGSGSGTDFTLTISSLQPEDVATYYCQQFNSFPYTFGQGTKLEIK",Kd,human IL-25 [1],0.044 nM
same,IC50,human IL-25 [3],0.02 nM
same,"Cellular inhibition, fold change",human IL-25 [8],3 fold change
"I25M20 (antibody, V domains shown, One of the 9 candidate IgG1 mAbs of the combinatorial library based on huDDG91) VH: EVQLVESGAEVKKPGASVKVSCKASGYSFSGYTMNWVRQAPGQRLEWMGLINPYNGGTSYNQNFKGRVTLTVDTSASTAYLELNSLRSEDTGVYYCAREDYDSWTFFAMDYWGQGTLVTVS VL: DIQMTQSPSSLSASVGDRVTITCSASQGISNYLNWYQQKPGKVPKLLIYYTSSLHSGVPSRFSGSGSGTDFTLTISSLQPEDVATYYCQQYLAFPYTFGQGTKLEIK",IC50,human IL-25 [3],0.013 nM
same,Kd,human IL-25 [9],0.045 nM
same,"Cellular inhibition, fold change",human IL-25 [8],20 fold change
"I25M31 (antibody, V domains shown, One of the 9 candidate IgG1 mAbs of the combinatorial library based on huDDG91) VH: EVQLVESGAEVKKPGASVKVSCKASGYSFSGYTMNWVRQAPGQRLEWMGLINPYNGGTSYNQNFKGRVTLTVDTSASTAYLELNSLRSEDTGVYYCAREDFDSWTYFAMDYWGQGTLVTVS VL: DIQMTQSPSSLSASVGDRVTITCSASQGISNYLNWYQQKPGKVPKLLIYYTSSLHSGVPSRFSGSGSGTDFTLTISSLQPEDVATYYCQQYSKLPYTFGQGTKLEIK",Kd,human IL-25 [1],0.04 nM
same,IC50,human IL-25 [3],0.018 nM
same,"Cellular inhibition, fold change",human IL-25 [8],12 fold change
"M6 antibody (antibody, human IgG1, kappa, V domains shown, Humanized IgG1 mAb with kappa light chain, a variant of huDDG91 with three substitutions in light chain CDR3) VH: EVQLVESGAEVKKPGASVKVSCKASGYSFSGYTMNWVRQAPGQRLEWMGLINPYNGGTSYNQNFKGRVTLTVDTSASTAYLELNSLRSEDTGVYYCAREDYDGYLYFAMDYWGQGTLVTVSS VL: DIQMTQSPSSLSASVGDRVTITCSASQGISNYLNWYQQKPGKVPKLLIYYTSSLHSGVPSRFSGSGSGTDFTLTISSLQPEDVATYYCQQYLAFPYTFGQGTKLEIKR",Kd,human IL-25 [1],0.053 nM
same,affinity relative to that for human IL-25,cynomolgus monkey IL-25,≤ 5 fold
same,IC50,human IL-25 [3],0.012 nM
same,"Cellular inhibition, fold change",human IL-25 [8],4 fold change
same,fold decrease in IC50 compared to huDDG91,human IL-25 [10],> 3 fold
